Data published in PMC10881513 (Nature Communications, 2024).

Target: T1, ASFV RNA polymerase subunit vRPB1 (African swine fever virus, strain BA71V, UniProt P42486 1-1450)
T1 sequence: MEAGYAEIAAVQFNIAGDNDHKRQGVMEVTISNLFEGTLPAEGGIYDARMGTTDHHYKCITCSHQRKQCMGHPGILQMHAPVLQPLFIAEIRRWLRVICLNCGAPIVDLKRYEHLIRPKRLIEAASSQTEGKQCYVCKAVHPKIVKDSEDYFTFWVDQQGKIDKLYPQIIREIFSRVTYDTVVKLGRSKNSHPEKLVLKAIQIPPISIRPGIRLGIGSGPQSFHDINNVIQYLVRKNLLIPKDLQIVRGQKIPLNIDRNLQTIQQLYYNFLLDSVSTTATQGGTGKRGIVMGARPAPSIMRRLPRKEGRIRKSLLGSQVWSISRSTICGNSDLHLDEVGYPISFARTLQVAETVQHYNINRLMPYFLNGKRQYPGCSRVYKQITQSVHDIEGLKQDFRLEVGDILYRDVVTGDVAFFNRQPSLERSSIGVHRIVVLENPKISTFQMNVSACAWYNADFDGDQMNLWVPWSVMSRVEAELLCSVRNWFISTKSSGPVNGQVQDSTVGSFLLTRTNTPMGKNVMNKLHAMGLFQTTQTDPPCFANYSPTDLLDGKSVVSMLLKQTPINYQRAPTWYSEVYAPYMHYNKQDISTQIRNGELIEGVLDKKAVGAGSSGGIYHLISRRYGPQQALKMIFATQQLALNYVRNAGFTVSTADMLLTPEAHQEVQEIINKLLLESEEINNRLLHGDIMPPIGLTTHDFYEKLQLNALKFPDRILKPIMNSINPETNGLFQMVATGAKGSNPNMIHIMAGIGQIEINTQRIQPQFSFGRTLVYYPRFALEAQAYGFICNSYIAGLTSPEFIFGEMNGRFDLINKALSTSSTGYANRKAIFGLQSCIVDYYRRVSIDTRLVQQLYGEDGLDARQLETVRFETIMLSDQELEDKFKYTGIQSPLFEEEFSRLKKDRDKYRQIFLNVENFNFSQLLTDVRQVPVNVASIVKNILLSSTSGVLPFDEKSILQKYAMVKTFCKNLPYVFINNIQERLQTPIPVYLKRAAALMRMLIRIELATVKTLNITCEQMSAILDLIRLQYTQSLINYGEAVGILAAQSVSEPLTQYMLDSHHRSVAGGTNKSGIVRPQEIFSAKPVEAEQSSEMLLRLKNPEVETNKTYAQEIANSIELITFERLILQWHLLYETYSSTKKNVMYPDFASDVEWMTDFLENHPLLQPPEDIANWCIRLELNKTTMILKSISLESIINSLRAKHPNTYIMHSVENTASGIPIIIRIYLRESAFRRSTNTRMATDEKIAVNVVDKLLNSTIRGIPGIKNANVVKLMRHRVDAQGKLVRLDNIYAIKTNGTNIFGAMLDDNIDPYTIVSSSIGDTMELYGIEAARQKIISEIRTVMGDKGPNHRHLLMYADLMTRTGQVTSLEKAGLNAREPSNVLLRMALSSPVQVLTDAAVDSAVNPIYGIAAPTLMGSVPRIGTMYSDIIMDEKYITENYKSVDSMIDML
Assay: cryo-EM structure
Details: both partners purified

B1: ASFV RNA polymerase subunit vRPB2, His-ZZ-tag cleaved with TEV (natural protein)
chain: MEPLRPQITYGPIETVDNEELTEADMLSFISAAVNSTGLIGYNIKSFDDLMDNGIPQIVKQMFNVDITYKDQRDHTEIDKLRESVQIQFNFTDVNIERPQHRNYSQGNKINLLPNKARLCGLSYSGPVNLAAEVILTAHYSNGRQEVKRASIPPFQVSTFPIMRGSNRCHTHHLSKTAKKEIGEDPNEPGGYFIARGGEWVVDLLENIRFNTLHIHYHTMQQGNNEIIRGEFISQPGGAFENSSQIIIRYMTTGAITIEINSTKFSKLRIPWYLIFRMFGMTGDDSIIEQVVFDLESNSPVNTFMIEILEKSIHVLDPIFQPVQHEPNREKIIQFLSEKVSKFVSNPSAYKSDENAVQYLNERQLTILDKILLPHMGQTADTRVRKLRFLGLLIHKILLVIMNVFPPTDRDSYRTKRVHGSGVSLAKAFKAIFNTSVIAPIINGFKELLKQTAFEELTQRNIIEAFSAALSKNTASDLNRSMEQSIISGNKTIMVRQRPIVNRVSTQSLERKNLLNTISALRTVNTHNTTNASKQTERADMMRRVHASYPGYICVAQSADTGEKVGMSKQLAITANVCTAGEVLSLKQRLLSDPAIQQLADVSNKDIVRKGLARVFINGEWIGCCTNAFELAQRYRMFRREGKIVHPHTTIYWDSMVDEVEFWLDVGRLTRPLLIVDNNIEKYNQACYKAAEARKKGDKDWEKHKIPFIQNTRFTSQMAKDILAGTLTLEDLVAQGICEFITPEEAENCLVAFSIIELRKHKHDVTRRFTHVDVPQAILGLAALVSPYANCTQPARVTYETNQGRQTGGWYCFSWPYRVDMNRFFQFYNEMPLVKTIAHNYVIPNGLNTIVAYMIYGGYNQEDSVIVSQSFIDRGGFAGTFYREEKVELESDIESFGKPDPLITKNLKPGANYEKLVDGFVPVGTVVKKGDIIIGKVAKIRGEKDELNKYIDRSVMYGFDEPAVVDAVMRPHGPNDEIFGLMRLRYERNLNIGDKMSSRSGNKGIAALALPTSDMPFTEDGLQPDLIVNPHSHPSRMTNGQMIETTVGLANALQGVVTDGTAFLPINVQLLSERLAQEGLRFNGCQKMFNGQTGEYFDAAIFIGPTYHQRLQKFVLDDRYAVASYGPTDALTGQPLDGKRSHGGLRLGEMEHWVLTAQGAMQTIIEKSHDDSDGCISYICRNCGEPAIYNASHPIYKCMNCDVQADIGMVDSRRSSIVFQHEMRAANVNITSVLSPRVFQPA
  binding result: binds
